The record followed here is the supplement of paper PMC12338614.

± gives the uncertainty stated by the source.

B1: library; numbered along this chain (parent)
chain: MEVVDPQQLGMFTEGELMSVGMDTFIHRIDSTEVIYQPRRKRAKLIGKYLMGDLLGEGSYGKVKEVLDSETLCRRAVKILKKKKLRRIPNGEANVKKEIQLLRRLRHKNVIQLVDVLYNEEKQKMYMVMEYCVCGMQEMLDSVPEKRFPVCQAHGYFCQLIDGLEYLHSQGIVHKDIKPGNLLLTTGGTLKISDLGVAEALHPFAADDTCRTSQGSPAFQPPEIANGLDTFSGFKVDIWSAGVTLYNITTGLYPFEGDNIYKLFENIGKGSYAIPGDCGPPLSDLLKGMLEYEPAKRFSIRQIRQHSWFRKKHPPAEAPVPIPPSPDTKDRWRSMTVVPYLEDLHGADEDEDLFDIEDDIIYTQDFTVPGQVPEEEASHNGQRRGLPKAVCMNGTEAAQLSTKSRAEGRAPNPARKACSASSKIRRLSACKQQ

This data set covers variants of B1. In words: STK11 functional score (HeLa growth suppression), rescaled enrichment; synonymous median = 1, nonsense median = 0 (normalised score). The conditions noted are these: with HeLa; variant type: missense. As to the method:
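Deep mutational scan (TileSeq/POPCode codon randomisation) of full-length codon-optimised STK11 cDNA integrated at a Bxb1 landing pad (AAVS1) in HeLa cells. Restoring functional STK11 suppresses HeLa proliferation. Variant frequencies were measured by NGS before and after about two weeks of growth. The error-corrected enrichment log-ratio was rescaled so that synonymous median = 1 and nonsense median = 0, scores above 1 were compressed, and codon-level and three biological replicate scores were combined; error is the bootstrapped standard error. Scale: synonymous median = 1, nonsense median = 0; below 0.5 = damaging.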
In the case of MEVVDPQQLGMFTEGELMSVGMDTFIHRIDSTEVIYQPRRKRAKLIGKYLMGDLLGEGSYGKVKGVLDSETLCRRAVKILKKKKLRRIPNGEANVKKEIQLLRRLRHKNVIQLVDVLYNEEKQKMYMVMEYCVCGMQEMLDSVPEKRFPVCQAHGYFCQLIDGLEYLHSQGIVHKDIKPGNLLLTTGGTLKISDLGVAEALHPFAADDTCRTSQGSPAFQPPEIANGLDTFSGFKVDIWSAGVTLYNITTGLYPFEGDNIYKLFENIGKGSYAIPGDCGPPLSDLLKGMLEYEPAKRFSIRQIRQHSWFRKKHPPAEAPVPIPPSPDTKDRWRSMTVVPYLEDLHGADEDEDLFDIEDDIIYTQDFTVPGQVPEEEASHNGQRRGLPKAVCMNGTEAAQLSTKSRAEGRAPNPARKACSASSKIRRLSACKQQ [E65G], the STK11 functional score amounted to 0.154 ± 0.087.

For MEVVDPQQLGMFTEGELMSVGMDTFIHRIDSTEVIYQPRRKRAKLIGKYLMGDLLGEGSYGKVKLVLDSETLCRRAVKILKKKKLRRIPNGEANVKKEIQLLRRLRHKNVIQLVDVLYNEEKQKMYMVMEYCVCGMQEMLDSVPEKRFPVCQAHGYFCQLIDGLEYLHSQGIVHKDIKPGNLLLTTGGTLKISDLGVAEALHPFAADDTCRTSQGSPAFQPPEIANGLDTFSGFKVDIWSAGVTLYNITTGLYPFEGDNIYKLFENIGKGSYAIPGDCGPPLSDLLKGMLEYEPAKRFSIRQIRQHSWFRKKHPPAEAPVPIPPSPDTKDRWRSMTVVPYLEDLHGADEDEDLFDIEDDIIYTQDFTVPGQVPEEEASHNGQRRGLPKAVCMNGTEAAQLSTKSRAEGRAPNPARKACSASSKIRRLSACKQQ [E65L], the STK11 functional score came out at 0.5 ± 0.28.

Regarding MEVVDPQQLGMFTEGELMSVGMDTFIHRIDSTEVIYQPRRKRAKLIGKYLMGDLLGEGSYGKVKFVLDSETLCRRAVKILKKKKLRRIPNGEANVKKEIQLLRRLRHKNVIQLVDVLYNEEKQKMYMVMEYCVCGMQEMLDSVPEKRFPVCQAHGYFCQLIDGLEYLHSQGIVHKDIKPGNLLLTTGGTLKISDLGVAEALHPFAADDTCRTSQGSPAFQPPEIANGLDTFSGFKVDIWSAGVTLYNITTGLYPFEGDNIYKLFENIGKGSYAIPGDCGPPLSDLLKGMLEYEPAKRFSIRQIRQHSWFRKKHPPAEAPVPIPPSPDTKDRWRSMTVVPYLEDLHGADEDEDLFDIEDDIIYTQDFTVPGQVPEEEASHNGQRRGLPKAVCMNGTEAAQLSTKSRAEGRAPNPARKACSASSKIRRLSACKQQ [E65F], the STK11 functional score is 1.22 ± 0.15.

With MEVVDPQQLGMFTEGELMSVGMDTFIHRIDSTEVIYQPRRKRAKLIGKYLMGDLLGEGSYGKVKRVLDSETLCRRAVKILKKKKLRRIPNGEANVKKEIQLLRRLRHKNVIQLVDVLYNEEKQKMYMVMEYCVCGMQEMLDSVPEKRFPVCQAHGYFCQLIDGLEYLHSQGIVHKDIKPGNLLLTTGGTLKISDLGVAEALHPFAADDTCRTSQGSPAFQPPEIANGLDTFSGFKVDIWSAGVTLYNITTGLYPFEGDNIYKLFENIGKGSYAIPGDCGPPLSDLLKGMLEYEPAKRFSIRQIRQHSWFRKKHPPAEAPVPIPPSPDTKDRWRSMTVVPYLEDLHGADEDEDLFDIEDDIIYTQDFTVPGQVPEEEASHNGQRRGLPKAVCMNGTEAAQLSTKSRAEGRAPNPARKACSASSKIRRLSACKQQ [E65R], the STK11 functional score worked out at 0.846 ± 0.099.

Consider MEVVDPQQLGMFTEGELMSVGMDTFIHRIDSTEVIYQPRRKRAKLIGKYLMGDLLGEGSYGKVKCVLDSETLCRRAVKILKKKKLRRIPNGEANVKKEIQLLRRLRHKNVIQLVDVLYNEEKQKMYMVMEYCVCGMQEMLDSVPEKRFPVCQAHGYFCQLIDGLEYLHSQGIVHKDIKPGNLLLTTGGTLKISDLGVAEALHPFAADDTCRTSQGSPAFQPPEIANGLDTFSGFKVDIWSAGVTLYNITTGLYPFEGDNIYKLFENIGKGSYAIPGDCGPPLSDLLKGMLEYEPAKRFSIRQIRQHSWFRKKHPPAEAPVPIPPSPDTKDRWRSMTVVPYLEDLHGADEDEDLFDIEDDIIYTQDFTVPGQVPEEEASHNGQRRGLPKAVCMNGTEAAQLSTKSRAEGRAPNPARKACSASSKIRRLSACKQQ [E65C], for which the STK11 functional score stood at 1.07 ± 0.12.

As to MEVVDPQQLGMFTEGELMSVGMDTFIHRIDSTEVIYQPRRKRAKLIGKYLMGDLLGEGSYGKVKVVLDSETLCRRAVKILKKKKLRRIPNGEANVKKEIQLLRRLRHKNVIQLVDVLYNEEKQKMYMVMEYCVCGMQEMLDSVPEKRFPVCQAHGYFCQLIDGLEYLHSQGIVHKDIKPGNLLLTTGGTLKISDLGVAEALHPFAADDTCRTSQGSPAFQPPEIANGLDTFSGFKVDIWSAGVTLYNITTGLYPFEGDNIYKLFENIGKGSYAIPGDCGPPLSDLLKGMLEYEPAKRFSIRQIRQHSWFRKKHPPAEAPVPIPPSPDTKDRWRSMTVVPYLEDLHGADEDEDLFDIEDDIIYTQDFTVPGQVPEEEASHNGQRRGLPKAVCMNGTEAAQLSTKSRAEGRAPNPARKACSASSKIRRLSACKQQ [E65V], the STK11 functional score was 0.734 ± 0.15.

MEVVDPQQLGMFTEGELMSVGMDTFIHRIDSTEVIYQPRRKRAKLIGKYLMGDLLGEGSYGKVKSVLDSETLCRRAVKILKKKKLRRIPNGEANVKKEIQLLRRLRHKNVIQLVDVLYNEEKQKMYMVMEYCVCGMQEMLDSVPEKRFPVCQAHGYFCQLIDGLEYLHSQGIVHKDIKPGNLLLTTGGTLKISDLGVAEALHPFAADDTCRTSQGSPAFQPPEIANGLDTFSGFKVDIWSAGVTLYNITTGLYPFEGDNIYKLFENIGKGSYAIPGDCGPPLSDLLKGMLEYEPAKRFSIRQIRQHSWFRKKHPPAEAPVPIPPSPDTKDRWRSMTVVPYLEDLHGADEDEDLFDIEDDIIYTQDFTVPGQVPEEEASHNGQRRGLPKAVCMNGTEAAQLSTKSRAEGRAPNPARKACSASSKIRRLSACKQQ [E65S]: the STK11 functional score was 1.55 ± 0.19.

Consider MEVVDPQQLGMFTEGELMSVGMDTFIHRIDSTEVIYQPRRKRAKLIGKYLMGDLLGEGSYGKVKHVLDSETLCRRAVKILKKKKLRRIPNGEANVKKEIQLLRRLRHKNVIQLVDVLYNEEKQKMYMVMEYCVCGMQEMLDSVPEKRFPVCQAHGYFCQLIDGLEYLHSQGIVHKDIKPGNLLLTTGGTLKISDLGVAEALHPFAADDTCRTSQGSPAFQPPEIANGLDTFSGFKVDIWSAGVTLYNITTGLYPFEGDNIYKLFENIGKGSYAIPGDCGPPLSDLLKGMLEYEPAKRFSIRQIRQHSWFRKKHPPAEAPVPIPPSPDTKDRWRSMTVVPYLEDLHGADEDEDLFDIEDDIIYTQDFTVPGQVPEEEASHNGQRRGLPKAVCMNGTEAAQLSTKSRAEGRAPNPARKACSASSKIRRLSACKQQ [E65H], for which the STK11 functional score came out at 1.36 ± 0.21.

Turning to MEVVDPQQLGMFTEGELMSVGMDTFIHRIDSTEVIYQPRRKRAKLIGKYLMGDLLGEGSYGKVKPVLDSETLCRRAVKILKKKKLRRIPNGEANVKKEIQLLRRLRHKNVIQLVDVLYNEEKQKMYMVMEYCVCGMQEMLDSVPEKRFPVCQAHGYFCQLIDGLEYLHSQGIVHKDIKPGNLLLTTGGTLKISDLGVAEALHPFAADDTCRTSQGSPAFQPPEIANGLDTFSGFKVDIWSAGVTLYNITTGLYPFEGDNIYKLFENIGKGSYAIPGDCGPPLSDLLKGMLEYEPAKRFSIRQIRQHSWFRKKHPPAEAPVPIPPSPDTKDRWRSMTVVPYLEDLHGADEDEDLFDIEDDIIYTQDFTVPGQVPEEEASHNGQRRGLPKAVCMNGTEAAQLSTKSRAEGRAPNPARKACSASSKIRRLSACKQQ [E65P], the STK11 functional score was determined as 0.657 ± 0.32.

With MEVVDPQQLGMFTEGELMSVGMDTFIHRIDSTEVIYQPRRKRAKLIGKYLMGDLLGEGSYGKVKMVLDSETLCRRAVKILKKKKLRRIPNGEANVKKEIQLLRRLRHKNVIQLVDVLYNEEKQKMYMVMEYCVCGMQEMLDSVPEKRFPVCQAHGYFCQLIDGLEYLHSQGIVHKDIKPGNLLLTTGGTLKISDLGVAEALHPFAADDTCRTSQGSPAFQPPEIANGLDTFSGFKVDIWSAGVTLYNITTGLYPFEGDNIYKLFENIGKGSYAIPGDCGPPLSDLLKGMLEYEPAKRFSIRQIRQHSWFRKKHPPAEAPVPIPPSPDTKDRWRSMTVVPYLEDLHGADEDEDLFDIEDDIIYTQDFTVPGQVPEEEASHNGQRRGLPKAVCMNGTEAAQLSTKSRAEGRAPNPARKACSASSKIRRLSACKQQ [E65M], the STK11 functional score was determined as 0.457 ± 0.078.

As for MEVVDPQQLGMFTEGELMSVGMDTFIHRIDSTEVIYQPRRKRAKLIGKYLMGDLLGEGSYGKVKIVLDSETLCRRAVKILKKKKLRRIPNGEANVKKEIQLLRRLRHKNVIQLVDVLYNEEKQKMYMVMEYCVCGMQEMLDSVPEKRFPVCQAHGYFCQLIDGLEYLHSQGIVHKDIKPGNLLLTTGGTLKISDLGVAEALHPFAADDTCRTSQGSPAFQPPEIANGLDTFSGFKVDIWSAGVTLYNITTGLYPFEGDNIYKLFENIGKGSYAIPGDCGPPLSDLLKGMLEYEPAKRFSIRQIRQHSWFRKKHPPAEAPVPIPPSPDTKDRWRSMTVVPYLEDLHGADEDEDLFDIEDDIIYTQDFTVPGQVPEEEASHNGQRRGLPKAVCMNGTEAAQLSTKSRAEGRAPNPARKACSASSKIRRLSACKQQ [E65I], the STK11 functional score stood at 0.756 ± 0.38.

For MEVVDPQQLGMFTEGELMSVGMDTFIHRIDSTEVIYQPRRKRAKLIGKYLMGDLLGEGSYGKVKDVLDSETLCRRAVKILKKKKLRRIPNGEANVKKEIQLLRRLRHKNVIQLVDVLYNEEKQKMYMVMEYCVCGMQEMLDSVPEKRFPVCQAHGYFCQLIDGLEYLHSQGIVHKDIKPGNLLLTTGGTLKISDLGVAEALHPFAADDTCRTSQGSPAFQPPEIANGLDTFSGFKVDIWSAGVTLYNITTGLYPFEGDNIYKLFENIGKGSYAIPGDCGPPLSDLLKGMLEYEPAKRFSIRQIRQHSWFRKKHPPAEAPVPIPPSPDTKDRWRSMTVVPYLEDLHGADEDEDLFDIEDDIIYTQDFTVPGQVPEEEASHNGQRRGLPKAVCMNGTEAAQLSTKSRAEGRAPNPARKACSASSKIRRLSACKQQ [E65D], the STK11 functional score is 1.34 ± 0.37.

Consider MEVVDPQQLGMFTEGELMSVGMDTFIHRIDSTEVIYQPRRKRAKLIGKYLMGDLLGEGSYGKVKQVLDSETLCRRAVKILKKKKLRRIPNGEANVKKEIQLLRRLRHKNVIQLVDVLYNEEKQKMYMVMEYCVCGMQEMLDSVPEKRFPVCQAHGYFCQLIDGLEYLHSQGIVHKDIKPGNLLLTTGGTLKISDLGVAEALHPFAADDTCRTSQGSPAFQPPEIANGLDTFSGFKVDIWSAGVTLYNITTGLYPFEGDNIYKLFENIGKGSYAIPGDCGPPLSDLLKGMLEYEPAKRFSIRQIRQHSWFRKKHPPAEAPVPIPPSPDTKDRWRSMTVVPYLEDLHGADEDEDLFDIEDDIIYTQDFTVPGQVPEEEASHNGQRRGLPKAVCMNGTEAAQLSTKSRAEGRAPNPARKACSASSKIRRLSACKQQ [E65Q], for which the STK11 functional score was 1.18 ± 0.52.

For the variant MEVVDPQQLGMFTEGELMSVGMDTFIHRIDSTEVIYQPRRKRAKLIGKYLMGDLLGEGSYGKVKNVLDSETLCRRAVKILKKKKLRRIPNGEANVKKEIQLLRRLRHKNVIQLVDVLYNEEKQKMYMVMEYCVCGMQEMLDSVPEKRFPVCQAHGYFCQLIDGLEYLHSQGIVHKDIKPGNLLLTTGGTLKISDLGVAEALHPFAADDTCRTSQGSPAFQPPEIANGLDTFSGFKVDIWSAGVTLYNITTGLYPFEGDNIYKLFENIGKGSYAIPGDCGPPLSDLLKGMLEYEPAKRFSIRQIRQHSWFRKKHPPAEAPVPIPPSPDTKDRWRSMTVVPYLEDLHGADEDEDLFDIEDDIIYTQDFTVPGQVPEEEASHNGQRRGLPKAVCMNGTEAAQLSTKSRAEGRAPNPARKACSASSKIRRLSACKQQ [E65N], the STK11 functional score is 1.06 ± 0.14.
